Experiments:
[1] = molecular target: human factor VII N360Q mutant, C-terminal V5 tag (human); assay: co-IP
[2] = molecular target: human factor VII wild-type, C-terminal V5 tag (human); assay: co-IP

Q: How did the level co-precipitated, percent of that with WT FVII [1] turn out when “binding immunoglobulin protein (BiP) (from UniProt P11021 19-654) (natural protein)” was run?
A: 230%

B1: calnexin (natural protein)
chain: HDGHDDDVIDIEDDLDDVIEEVEDSKPDTTAPPSSPKVTYKAPVPTGEVYFADSFDRGTLSGWILSKAKKDDTDDEIAKYDGKWEVEEMKESKLPGDKGLVLMSRAKHHAISAKLNKPFLFDTKPLIVQYEVNFQNGIECGGAYVKLLSKTPELNLDQFHDKTPYTIMFGPDKCGEDYKLHFIFRHKNPKTGIYEEKHAKRPDADLKTYFTDKKTHLYTLILNPDNSFEILVDQSVVNSGNLLNDMTPPVNPSREIEDPEDRKPEDWDERPKIPDPEAVKPDDWDEDAPAKIPDEEATKPEGWLDDEPEYVPDPDAEKPEDWDEDMDGEWEAPQIANPRCESAPGCGVWQRPVIDNPNYKGKWKPPMIDNPSYQGIWKPRKIPNPDFFEDLEPFRMTPFSAIGLELWSMTSDIFFDNFIICADRRIVDDWANDGWGLKKAADGAAEPGVVGQMIEAAEERPWLWVVYILTVALPVFLVILFCCSGKKQTSGMEYKKTDAPQPDVKEEEEEKEEEKDKGDEEEEGEEKLEEKQKSDAEEDGGTVSQEEEDRKPKAEEDEILNRSPRNRKPRRE
Q: With B1 as the molecule, how does the level co-precipitated, percent of that with WT FVII [1] read?
A: 124%

Q: And the level co-precipitated in DNJ-treated cells, percent of WT in untreated cells [2]?
A: 129%
